# Assay results as given in US20240132603A1 (HARBOUR BIOMED US, published 2024).
# Substitutions are numbered along the chain they refer to. Names and notes keep the numbering of the source. Where two headings read alike, the source gives them in different places.
# B1: PR004125 (antibody, human IgG1, kappa)
# heavy: not shown
# light: DIVMTQAAPSVPVTPGESVSISCRSSKSLLHSNGNTYLYWFLQRPGQSPQLLIYRMSNLASGVPDRFSGSGSGTAFTLRISRVEAEDVGVYYCMQHLEYPLTFGAGTKLEMKRTVAAPSVFIFPPSDEQLKSGTASVVCLLNNFYPREAKVQWKVDNALQSGNSQESVTEQDSKDSTYSLSSTLTLSKADYEKHKVYACEVTHQGLSSPVTKSFNRGEC
# notes: chimeric, human IgG1 constant region
# B2: PR004250 (antibody, human IgG1, kappa)
# heavy: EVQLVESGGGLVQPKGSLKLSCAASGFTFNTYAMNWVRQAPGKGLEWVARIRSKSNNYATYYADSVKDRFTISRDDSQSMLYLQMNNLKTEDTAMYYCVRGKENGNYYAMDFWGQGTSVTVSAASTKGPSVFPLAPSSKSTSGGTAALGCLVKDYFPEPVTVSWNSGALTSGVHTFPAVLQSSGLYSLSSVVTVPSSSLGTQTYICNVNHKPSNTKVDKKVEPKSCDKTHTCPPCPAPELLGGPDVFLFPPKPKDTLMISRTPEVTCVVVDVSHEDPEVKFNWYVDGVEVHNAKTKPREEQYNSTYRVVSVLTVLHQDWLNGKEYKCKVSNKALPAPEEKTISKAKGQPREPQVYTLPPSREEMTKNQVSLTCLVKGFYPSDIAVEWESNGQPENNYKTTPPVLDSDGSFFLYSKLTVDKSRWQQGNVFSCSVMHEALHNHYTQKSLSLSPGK
# light: B1 light
# notes: PR004125 with S239D and I332E (DE) in the IgG1 constant region
# B3: PR005170 (antibody, human IgG1, kappa, V domains shown)
# VH: EVQLVESGGGLVQPKGSLKLSCAASGFTFNTYAMNWVRQAPGKGLEWVARIRSKSNNYATYYADSVKDRFTISRDDSQSMLYLQMNNLKTEDTAMYYCVRGKENGNYYAMDFWGQGTSVTVSA
# VL: DIVMTQAAPSVPVTPGESVSISCRSSKSLLHSNGKIYLYWFLQRPGQSPQLLIYRMSNLASGVPDRFSGSGSGTAFTLRISRVEAEDVGVYYCMQHLEYPITFGAGTKLEIKR
# notes: heavy chain entry as PR004128
# B4: PR005171 (antibody, human IgG1, kappa, V domains shown)
# VH: B3 VH
# VL: B3 VL with I101M
# notes: heavy chain entry as PR004128
# B5: PR005172 (antibody, human IgG1, kappa, V domains shown)
# VH: B3 VH
# VL: B3 VL with I101V
# notes: heavy chain entry as PR004128
# B6: PR004668 (antibody, human IgG1, kappa)
# heavy: not shown
# light: DIVMTQSPLSLPVTPGEPASISCRSSKSLLHSNGKIYLYWFLQKPGQSPQLLIYRMSNLASGVPDRFSGSGSGTDFTLKISRVEAEDVGVYYCMQHLEYPLTFGQGTKLEIKRTVAAPSVFIFPPSDEQLKSGTASVVCLLNNFYPREAKVQWKVDNALQSGNSQESVTEQDSKDSTYSLSSTLTLSKADYEKHKVYACEVTHQGLSSPVTKSFNRGEC
# notes: humanized; same VH/VL as PR004520, other heavy chain entry
# B7: PR006275AF (antibody, human IgG1, kappa)
# heavy: not shown
# light: B6 light with P15L, E17Q, G34A, L42Q, K44R, Q50R
# modifications: afucosylated (AF) Fc glycan, produced with 2-fluoro peracetylated fucose
# notes: also called PR00PR006275AF; R00PR006275AF
# B8: PR006276AF (antibody, human IgG1, kappa)
# heavy: not shown
# light: B6 light with P15L, E17Q, G34A, L42Q, K44R, Q50R
# modifications: afucosylated (AF) Fc glycan, produced with 2-fluoro peracetylated fucose
# B9: PR004342 (antibody, human IgG1, kappa, V domains shown)
# VH: B3 VH
# VL: DIVMTQSPLSLPVTPGEPASISCRSSKSLLHSNGNTYLYWFLQKPGQSPQLLIYRMSNLASGVPDRFSGSGSGTDFTLKISRVEAEDVGVYYCMQHLEYPFTFGQGTKLEIKR
# B10: PR004346 (antibody, human IgG1, kappa, V domains shown)
# VH: B3 VH
# VL: B9 VL with P15L, E17Q, L42Q, K44R, Q50R
# B11: PR004970 (antibody, human IgG1, kappa, V domains shown)
# VH: EVQLVESGGGLVQPGGSLRLSCAASGFTFSSYWMSWVPQAPGKGLEWVANIKQDGSAKFYVDSVKGRFTISRDNAKNSLYLQMNSLRAEDTAVYYCARSWGFAYWGQGTLVTVSS
# VL: DIQMTQSPSSLSASVGDRVTITCRASQGISNYLAWYQQKPGKVPKLLIYAASTLQSGVPSRFSGSGSGTDFTLTISSLQPEDVATYYCQKYNSAPWTFGQGTKVEIKR
# notes: fully human, from single cell clone screening
# How the values were obtained:
# human CCR8 [1] = target: T1, human CCR8 (human, UniProt P51685 1-355); assay: cell-based or functional assay
# T1 sequence (P51685 whole entry): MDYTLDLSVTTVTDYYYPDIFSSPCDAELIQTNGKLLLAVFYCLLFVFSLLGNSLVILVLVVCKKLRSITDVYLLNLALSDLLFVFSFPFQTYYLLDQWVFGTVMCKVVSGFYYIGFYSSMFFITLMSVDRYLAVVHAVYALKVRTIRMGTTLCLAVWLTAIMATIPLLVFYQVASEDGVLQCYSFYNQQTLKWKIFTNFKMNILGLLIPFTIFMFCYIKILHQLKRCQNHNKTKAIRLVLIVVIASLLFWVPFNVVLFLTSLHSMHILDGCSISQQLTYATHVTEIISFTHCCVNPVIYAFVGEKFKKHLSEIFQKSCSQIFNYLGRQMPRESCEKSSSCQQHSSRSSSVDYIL
# cynomolgus monkey CCR8 [2] = target: T2, cynomolgus monkey CCR8 (cynomolgus monkey, UniProt G7NYJ2 1-355); assay: FACS, CHO-K1-CynoCCR8 cells
# T2 construct: whole, on cells; also called CynoCCR8
# T2 sequence (G7NYJ2 entry or part of it): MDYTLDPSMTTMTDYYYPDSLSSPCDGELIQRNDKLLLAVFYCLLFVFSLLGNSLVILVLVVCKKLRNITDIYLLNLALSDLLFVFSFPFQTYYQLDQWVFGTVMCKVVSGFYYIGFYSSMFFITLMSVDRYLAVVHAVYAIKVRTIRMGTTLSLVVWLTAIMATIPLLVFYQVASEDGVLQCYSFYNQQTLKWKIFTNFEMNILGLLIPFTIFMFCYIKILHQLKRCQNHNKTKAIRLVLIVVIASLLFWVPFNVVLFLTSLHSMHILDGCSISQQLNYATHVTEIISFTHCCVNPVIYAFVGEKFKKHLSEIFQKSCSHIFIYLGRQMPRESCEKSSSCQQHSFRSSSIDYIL
# Method in brief: (§1)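 Anti-CCR8 antibodies titrated in 5-fold steps from 200 nM onto 1E6 cells/mL CHO-K1-CynoCCR8 in DPBS/2% FBS, 1 h at 4 °C. Bound antibody detected with 1:1000 secondary antibody, 40 min at 4 °C, then flow cytometry.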
# human CCR8 [3] = target: T1, human CCR8; assay: FACS, CHO-K1-hCCR8 cells
# Method in brief: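 CCR8-overexpressing cells were stained for 1 h at 4 °C with anti-CCR8 antibodies in a 5-fold series from 200 nM. After a 1:1000 secondary antibody for 40 min at 4 °C, binding was read by flow cytometry.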
# human CCR8 [4] = target: T1, human CCR8; assay: FACS, HEK293-hCCR8 cells
# Method: (§2) Cells overexpressing human CCR8 were digested with pancreatin, counted and resuspended to a cell density of 1E6 cells/mL. The cell suspension was added to a 96-well V-bottom plate at 100 μL/well and centrifuged at 300 g for 5 min, and the supernatant was discarded. The anti-CCR8 antibodies provided herein was used as a primary antibody and diluted in a 5-fold gradient with an FACS buffer (DPBS containing 2% FBS) from 200 nM. The diluted primary antibody was added at 100 μL/well to resuspend the cells, and the mixture was incubated at 4° C. for 1 h. The plate was washed twice with DPBS and centrifuged at 300×g for 5 min, and the supernatant was discarded. The secondary antibody diluted in a 1:1000 ratio with an FACS buffer was added at 100 μL/well to suspend the cells, and the mixture was incubated at 4° C. for 40 min. The plate was washed twice with DPBS and centrifuged at 300×g for 5 min, and the supernatant was discarded. DPBS was added at 200 μL/well to suspend the cells, and the mixture was loaded on an FACS machine for analysis.
# human CCR8 [5] = target: T1, human CCR8; assay: FACS competition on HEK293-hCCR8 cells against a biotin-labelled anti-CCR8 antibody at its EC80; the labelled antibody of this panel is not named on the sheet
# Method: (§3) The antibody was conjugated with Sulfo-NHS-LC-Biotin at a molar ratio of 5:1 (1 mol antibody was added to 5 mol Sulfo-NHS-LC-Biotin) with reference to the product instructions (ThermoFisher, Cat No. A39257) and incubated on ice for 2 h. The coupled antibody was purified with a Zeba desalting column (ThermoFisher, Cat No. 89882). Cells overexpressing human CCR8, HEK293-hCCR8, were added to a V-bottom 96-well plate at a density of 1E5 cells/well and centrifuged at 300 g for 5 min, and the supernatant was discarded. The competitive antibody was serially diluted in a ratio of 1:10 from 200 nM to obtain 8 concentration points. The Biotin-antibody and the competition antibody were mixed in a 1:1 ratio on an HEK293 cell line overexpressing human CCR8 by the binding EC₈₀ concentration. The cells in the 96-well plate were resuspended and incubated at 4° C. for 1 h. The plate was washed twice with DPBS at 200 μL/well. The secondary antibody diluted in a 1:1000 ratio was added at 100 μL/well, and the mixture was incubated at 4° C. for 40 min. The plate was washed twice with DPBS at 200 μL/well. Finally, DPBS was […] at 200 μL/well to suspend the cells, and the mixture was loaded on an FACS machine for analysis.
# human CCR8 [6] = target: T1, human CCR8; assay: as above; remark: listed apart in the source
# Method: as §3
# cynomolgus monkey CCR8 [7] = target: T2, cynomolgus monkey CCR8; assay: FACS, CHO-K1-CynoCCR8 cells; remark: listed apart in the source
# Method: as §2, with “cynomolgus monkey CCR8, CHO-K1-CynoCCR8,” for “human CCR8”
# human CCR8 [8] = target: T1, human CCR8; assay: FACS competition on HEK293-hCCR8 cells against a biotin-labelled anti-CCR8 antibody at its EC80; the labelled antibody of this panel is not named on the sheet; remark: listed apart in the source
# Method: as §3
# human CCR8 [9] = target: T1, human CCR8; assay: as above; remark: listed apart in the source
# Method: as §3
# human CCR8 [10] = target: T1, human CCR8; assay: cell-based or functional assay; remark: listed apart in the source
# human CCR8 [11] = target: T1, human CCR8; assay: FACS, Baf3-hCCR8 cells
# Method: as §2
# human CCR8 [12] = target: T1, human CCR8; assay: FACS competition on HEK293-hCCR8 cells against a biotin-labelled anti-CCR8 antibody at its EC80; the labelled antibody of this panel is not named on the sheet; remark: listed apart in the source
# Method: as §3
# human CCR8 [13] = target: T1, human CCR8; assay: FACS, HEK293-hCCR8 cells; remark: listed apart in the source
# Method: as §2
# human CCR8 [14] = target: T1, human CCR8; assay: FACS on CHO-K1 cells overexpressing human CCR8
# Method: as §2
# cynomolgus monkey CCR8 [15] = target: T2, cynomolgus monkey CCR8; assay: FACS, CHO-K1-CynoCCR8 cells; remark: listed apart in the source
# Method in brief: as §1
# cynomolgus monkey CCR8 [16] = target: T2, cynomolgus monkey CCR8; assay: FACS on CHO-K1 cells overexpressing cynomolgus monkey CCR8
# Method: as §2, with “cynomolgus monkey CCR8, CHO-K1-CynoCCR8,” for “human CCR8”
# human CCR8 [17] = target: T1, human CCR8; assay: FACS, CHO-K1-hCCR8 cells; remark: listed apart in the source
# Method: as §2
binder,measurement,setting,value
B1,"Bottom %, blocking of CCL1-stimulated calcium flux",human CCR8 [1],23%
same,"IC50(nM), blocking of CCL1-stimulated calcium flux",human CCR8 [1],1.16 nM
same,EC50,cynomolgus monkey CCR8 [2],1.16 nM
same,EC50,human CCR8 [3],0.5 nM
same,EC50,human CCR8 [4],0.66 nM
same,IC50 (read off the curve),human CCR8 [5],~3 nM
same,IC50 (read off the curve),human CCR8 [6],~2 nM
same,EC50,cynomolgus monkey CCR8 [7],2.44 nM
same,IC50 (read off the curve),human CCR8 [8],1 to 2 nM
same,IC50 (read off the curve),human CCR8 [9],~2 nM
same,"EC50, ADCC reporter gene activity (Jurkat/FcγR III-NFAT effector cells)",human CCR8 [10],0.59 nM
same,EC50,human CCR8 [11],0.21 nM
same,IC50 (read off the curve),human CCR8 [12],~2 nM
same,EC50,human CCR8 [13],0.72 nM
B2,EC50,human CCR8 [4],1.66 nM
same,EC50,cynomolgus monkey CCR8 [7],3.5 nM
same,"EC50, ADCC reporter gene activity (Jurkat/FcγR III-NFAT effector cells)",human CCR8 [10],0.04 nM
B3,EC50 (read off the curve),human CCR8 [14],~1 nM
B4,EC50 (read off the curve),human CCR8 [14],~1 nM
B5,EC50 (read off the curve),human CCR8 [14],~2 nM
B6,EC50,cynomolgus monkey CCR8 [15],1.88 nM
same,EC50,human CCR8 [3],0.62 nM
same,EC50 (read off the curve),cynomolgus monkey CCR8 [16],~2 nM
B7,EC50,cynomolgus monkey CCR8 [2],0.51 nM
same,EC50,human CCR8 [3],0.4 nM
same,"EC50, ADCC reporter gene activity (Jurkat/FcγR III-NFAT effector cells)",human CCR8 [10],2.6 nM
B8,EC50,cynomolgus monkey CCR8 [2],0.5 nM
same,EC50,human CCR8 [3],0.39 nM
same,"EC50, ADCC reporter gene activity (Jurkat/FcγR III-NFAT effector cells)",human CCR8 [10],1.66 nM
B9,EC50,human CCR8 [17],0.8 nM
same,binding result,cynomolgus monkey CCR8 [16],no binding (tested: 200 nM)
B10,EC50,human CCR8 [17],0.91 nM
same,binding result,cynomolgus monkey CCR8 [16],no binding (tested: 200 nM)
B11,binding result,human CCR8 [14],binds
